# From the nanobody polyreactivity screen of Harvey et al. (2022)
# Assay: yeast display, Sf9 membrane polyspecificity reagent, FACS + sequencing; frameworks hold sequencing errors
# Method in brief: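 A synthetic nanobody library was expressed on Saccharomyces cerevisiae BJ5465 by galactose induction for 36–48 hours. The library was stained for 1 hour at 4 °C with 10% biotinylated, detergent-solubilized Sf9 membrane reagent and enriched with streptavidin microbeads before FACS. Low and high (top ~1%) gates were set on anti-HA fluorescence for expression and streptavidin fluorescence for reagent binding, and each polyreactivity label reflects the gate of origin.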
row,Sequence,polyreactivity (PSR sort gate)
1,QVQLVESGGGLVQAGGSLRLSCAASGFIFIRYAMGWYRQAPGKERELVAAINGGGSSTYYADSVKGRFTISRDNAKNTVYLQMNSLKPEDTAVYYCAADTDSWWYYLYYGDGFDYWGQGTQVTVSS,high polyreactivity
2,QVQLVESGGGLVQAGGSLRLSCAASGFTLRRNAMGWYRQAPGKERELVAAISRGGSTYYADSVKGRFTISRDNAKNTVYLQMNSLKPEDTAVYYCNAGWFKYYPNLQAFNYWGQGTQVTVSS,high polyreactivity
3,QVQLVESGGGLVQAGGSLRLSCAASGRIFFYAMGWYRQAPGKERELVASITTSGTSTYYADSVKGRFTISRDNAKNTVYLQMNSLKPEDTAVYYCNATSNSIRWYDFYYWGQGTQVTVSS,low polyreactivity
4,QVQLVESGGGLVQAGGSLRLSCAASGIIFVPNTMGWYRQAPGKERELVAAIRWSGGTTYYADSVKGRFTISRDNAKNTVYLQMNSLKPEDTAVYYCAARYGSRSSYLAYYYWGQGTQVTVSS,high polyreactivity
5,QVQLVESGGGLVQAGGSLRLSCAASGSIFRFNAMGWYRQAPGKERELVATISRSGGSTYYADSVKGRFTISRDNAKNTVYLQMNSLKPEDTAVYYCAADAYPTWPEYDGLYFKYDYWGQGTQVTVSS,high polyreactivity
6,QVQLVESGGGLVQAGGSLRLSCAASGNIFGYYVMGWYRQAPGKERELVAGISSGDSTDYADSVKGRFTISRDNAKNTVYLQMNSLKPEDTAVYYCNADWNPTERWFYWYTPLGYDYWGQGTQVTVSS,low polyreactivity
7,QVQLVESGGGLVQAGGSLRLSCAASGRIFVQNAMGWYRQAPGKERELVAAISISGARTYYADSVKGRFTISRDNAKNTVYLQMNSLKPEDTAVYYCNASYRDEDDYWGQGTQVTVSS,high polyreactivity
8,QVQLVESRGGLVQAGGSLRLSCAASGFIFKTNAMGWYRQAPVKERELVAAISNSDGSTYYADSVKGRFTISRDNAKNTVYLQMNSLKPEDTAVYYCAADRTDFWPYDYWGQGTQVTVSS,low polyreactivity
9,QVHLVESGGGLVQAGGSLRLSCAASGRIFRYNAMGWYRQAPVKESELVAAISSIGGRTYYADSVKGRFTISRDNAKNTVYLQMNSLQPEDTAVYNCAALSYYVDGEYDYWGQGTQVTVSS,high polyreactivity
10,QVQLVESGGGLVQAGGSLRLSCAASGSIFVHNDMGWYRQAPGKERELVATIDSAGGTYYADSVKGRFTISRDNAKNTVYLQMNSLKPEDTAVYYCAAYGPYVLSIYDYWGQGTQVTVSS,low polyreactivity
11,QVQIVESGGGLVQAAGSLRLSCAAYGRIFGVYAMGWYRQAPGKERELVSNITSGGSTSYADSVKGRFTISRDNAKNTVYLQMNSLKPEDTAVYYCNAPYSFFWQQMNYWGQGTQVTVSS,low polyreactivity
12,QVQLVESGGGLVQAGGSLRLSCAASGSTFDVNTMGWYRQAPGKERELVAAIRLRGGSTYYADSVKGRFTISRDNAKNTVYLQMYSLKPEDTEVSYCAADYTLIYDYWGQGTQVTVSS,low polyreactivity
13,QVQLVESGGGLVQAGGSLRLSCAASGGTFRNNAMGWYRQAPGKERELVAAISWSGGRTYYADSVKGRFTISRDNAKNTVYLQMNSLKPEDTAVYYCAASYSGRQDRYPHYDYWGQGTQVTVSS,low polyreactivity
14,QVQLVESGGGLVQAGGSLRLSCAASGLIFGGNAMGWYRQAPGKERELVAAITYRTGSTYYADSVKGRFTISRDNAKNTVYLQMNSLKPEDTAVYYCAAAVSLGYPVAFYYWGQGTQVTVSS,low polyreactivity
15,QVQLVESGGGLVQAGGSLRLSCAASGFIFRYYAMGWYRQAPGKERELVAAISWSGGSTYYADSVKGRFTISRDNAKNTVYLQMNSLKPEDTAVYYCNAVTTYGEYDYWGHGTQVTVSS,high polyreactivity
16,QVQLVESGGGLVQAGGSLRLSCAASGRNFTRNAMGWYRQAPGKEREFVAAISWSGGSTYYADSVKGRFTLSRDNAKNTVYVQMNSLKPEDTAVYYCAAKNCGGYVSWYDYWGQGTQVTVSS,low polyreactivity
17,QVQLVESGGGLVQAGGSLSLSCAASGSIFGIYAMGWYRQAAGKDRELVATINSRGTTNYADSVKGRFTISRYNAKNTVYLQMNSLKPEDTAVYYCAARFSTYRGKLKGYEYWGQGTQVTVSS,high polyreactivity
18,QVQLVESGGGLVQAGGSLRLSCAASGSTWVYAMGWYRQAPGKERELFAAITVSGGSTYYADSVKGRFTISRDNAKNTVYLQMNSQKPEDPAVYYCAAYDSYRKFKYLGQGTQVTVSS,high polyreactivity
19,QVQLEESRGGLVQAGGSLRLSSADSGSTFDYYAKGWYRQAPGKERELVAAITSTGRTYYADSVKGRFTISRDNAKNTVYLQMNSLKPEDTAVYYCAADLPWGPLFDYWGQGTQVTVSS,low polyreactivity
20,QVQLLESGGGLVQAGGSIRLSFADSAFIFTSYSIGRYRQAPGKEREFVAAISWTGGTYYADSVKGRFTISRDNAKNTVYFLINSLKPEDTAVYYCAVRYKRKGSGYRYYLYVYWGQGTQVTVSS,high polyreactivity
21,QVQLVESGGGLVQAGGSLRLSCAASGRTFGYYAMGWYRQAPGKERELVAAISRGGRTNYADSVKGRFTISRDNAKNTVYLQMNSLKPEDTAVYYCAKSGTIPRYTASYSLLDYWGQGTQVTVSS,low polyreactivity

row,Sequence,polyreactivity (PSR sort gate)
1,QVQLVESGGGLDQAGGSLRLSCAASGSTFKPNVMGWYRQAPGEERELVAAISSRGGRTYYADSVKGRFTISRDNEKNNVYLQMNRLKPEDTAVYYCAALYLATGVDKAFDSWGQGTQVTVSS,high polyreactivity
2,LVQLQESGGGLVQAGGSLRLSCAASGTISPGGNMGWYRQAPGKERELLASINVGGSTNYADSVKGRFTISRDNAINTVFLQMNSLKPDDNAVFYCAVWGRNRLQLSYWGQGTQVTVSS,low polyreactivity
3,QVQLVESGGGLVQAGGSLRLSCAASGLIFGYYGMGWYRQAPGKERELVAVITDDDSTTYADSVKGRFTISRDNAKNTVYLLMNSLKPEDTAVYYCNADNLLGRFDSWGQGTQVTVSS,low polyreactivity
4,QVQRVESGGGLVQAGGSLRLSCAASGSIFRFYAMGWYRQARGKERELVAAITSGGSTNYADSVKGRFTISRDNAKNTVFLQMKSLKPEDTAVYYFNAGLFYKPQYGYWGQGTQVTVSS,high polyreactivity
5,QVQLVESGGGLVQARGSLRLSCAASGSIFRGYGMRRYIQAPGKERELVAAINYSGGSTYYADSVKGRFTISRDNAKNTVYLQMNSLKPEDTGVYYCNNDYYRQRGEYYYWGQGTQVTVSS,high polyreactivity
6,QVQLVESGGGLVQAGGSLRLSCAASGIIFGSNAMGWYRQAPGKERELVAAITSGGNTYYADSVKGRFTISRDNAKNTVYLQMNSLKPEDTAVYYCAARRPRRYGYWGQGTQVTVSS,high polyreactivity
7,QVQLVESGGGLVQAGGSLRLSCAASGITFTVYAMGWYRQAPGKERELVAAITSTGSTNYADSVKGRFTISRDNAKNTVYLQMNSLKPEDTAVYYCAARRSHQYRGPHFNYWGQGTQVTVSS,low polyreactivity
8,QVQLVESGGGLVQAGGSLRLSCAASGRTFWIYAMGWYRQAPGKEREFVAAISSSGGGTYYADSVKGRFTISRDNAKNTVYLQMNSLKPEDTAVYYCAADDGYSSNEFDYWGQGTQVTVSS,low polyreactivity
9,QVQLVESGGGLVQAGGSLRLSCAASGRIFGYYAMGWYRQAPGKERELVAAIRRSGGSTYADSVKGRFTISRDNAKNTVYLQMNSLKPEDTAVYYCAAGHYWFTKGYHTLYDMDYWGQGTQVTVSS,high polyreactivity
10,QVQLVESGGGLFQAGGILRLSCAASGYTFPDYAMGWYRQAPGKEREFVATISWSGTSTYYADSVKGRFTISRDNAKNTVYLQMNSLTTEDTAVYYCNKTPSSWPDLYSYNYWGQGTQVTVSS,low polyreactivity
11,QVHLVESGGGLVQAGGSLRLSCPASGFTFDNYAMGWYRQPPGKERELVAAINWSGGRTYYADSVKGRFTISRDNAKNTVYLQMNSLKPEDTAVYYCGVPGYVRMDYWGQGTQVTVSS,high polyreactivity
12,QVQLVESGGGLVQAGGSLRLSCAASGRISGYNMGWYRQAPGKERELVAAISNGGSTNYADSVKGRFTISRDNAKNTVYLQMNSLKPEDTAVYYCNRRVPYSFYSRGYYYWGQGTQVTVSS,high polyreactivity
13,QVQLVESGGGLVQAGGSLRLSCAASGLILVHYAMGWYRQAPGKERELVAAISAGGGSTYYADSVKGRFTISRDNAKNTVYLQMTSLKPEDTAVYYCNARVVNYFRPRTGAREYDYWGQGTQVTVSS,high polyreactivity
14,QVQLVESGGGLVQAGGSLRLSCAASGLTFSKNAMGWYRQAPGKEREVVATISYSSYRTNYADSVKGRFTISRDNANNPVYLQMNSLKPEDTAVYYCAARVSKGWPTHYDYWGQGTQVTVSS,high polyreactivity
15,QVQLEESGGGLVQAGGSLRLSCAASGSTFKLYTMGWYRQAPGKEREFVATITSGGRTNYADSVKGRFTISRDNAKNTVYLQMNSLKPEDTAVYYCAATWLRVKYRFKGYDYWGQGTQVTVSS,high polyreactivity
16,QVHLVESGGGLVQAGGSLRLSCAASGRTFVRYAMGWYRQAPGKERELVAAISLRGGRTYYADSVKGRFTISRDNAKNTVYLQMNSLKPEDTAVYYCAARSYPTGASYDYWGQGTQVTVSS,high polyreactivity
17,QVQLVESGGGLVQAGGSLRLSCAASGSTFITNAMGGYRQAPGKERELVATISRSGGRTYYADSVKGRFTISRDNAKNSVYLEMNSLNPEDTAVFYCAKRYGSKFEYWGLGTQVTVSS,high polyreactivity
18,QVQLVESGGCLVQAGGSLRLSCAASGFTIWPNAMGWYRQAPGKERELVAAINWSGGATYYADSVKGRFTISRDNAKNSVYLHMNSLKPEDTAVYYCAAFSYDWYGGDEYWGKGTQVTVSS,low polyreactivity
19,QVQLVESGGGLVQAGGSLRLSCAASGNTFYVNVMGWYRPAPGKEREFVAAISTRGVSTSYADSVKGRFTISRDNAKNTVYFQMNSLKPEDTAVYYGAARYYYRDWVGIISTYYYWGQGTQVTVSS,high polyreactivity
20,QVQLVESGGGLFQEGGSLRLSCAASGSIFNGYAMGWYRQAPGKEREFVDAITFSATSTYYADSVKRRFTLSRDNAKNTVYLQMNSLKPEDTAVYYCAVAVPLSRYWWRRTYDYWGQGTQVTVSS,low polyreactivity
